Source: US20120028912

Target: T1, HIV-1 Tat protein, wild type
T1 chain: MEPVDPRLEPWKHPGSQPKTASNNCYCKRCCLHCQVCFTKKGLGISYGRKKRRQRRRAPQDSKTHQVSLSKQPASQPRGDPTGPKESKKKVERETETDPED

B1: p300/CBP-associated factor (P/CAF), HA-tagged (protein)
chain: MSEAGGAGPGGCGAGAGAGAGPGALPPQPAALPPAPPQGSPCAAAAGGSGACGPATAVAAAGTAEGPGGGGSARIAVKKAQLRSAPRAKKLEKLGVYSACKAEESCKCNGWKNPNPSPTPPRADLQQIIVSLTESCRSCSHALAAHVSHLENVSEEEMNRLLGIVLDVEYLFTCVHKEEDADTKQVYFYLFKLLRKSILQRGKPVVEGSLEKKPPFEKPSIEQGVNNFVQYKFSHLPAKERQTIVELAKMFLNRINYWHLEAPSQRRLRSPNDDISGYKENYTRWLCYCNVPQFCDSLPRYETTQVFGRTLLRSVFTVMRRQLLEQARQEKDKLPLEKRTLILTHFPKFLSMLEEEVYSQNSPIWDQDFLSASSRTSQLGIQTVINPPPVAGTISYNSTSSSLEQPNAGSSSPACKASSGLEANPGEKRKMTDSHVLEEAKKPRVMGDIPMELINEVMSTITDPAAMLGPETNFLSAHSARDEAARLEERRGVIEFHVVGNSLNQKPNKKILMWLVGLQNVFSHQLPRMPKEYITRLVFDPKHKTLALIKDGRVIGGICFRMFPSQGFTEIVFCAVTSNEQVKGYGTHLMNHLKEYHIKHDILNFLTYADEYAIGYFKKQGFSKEIKIPKTKYVGYIKDYEGATLMGCELNPRIPYTEFSVIIKKQKEIIKKLIERKQAQIRKVYPGLSCFKDGVRQIPIESIPGIRETGWKPSGKEKSKEPRDPDQLYSTLKSILQQVKSHQSAWPFMEPVKRTEAPGYYEVIRFPMDLKTMSERLKNRYYVSKKLFMADLQRVFTNCKEYNAAESEYYKCANILEKFFFSKIKEAGLIDK
  Superinduction of Tat transactivation activity: as much as a 30-fold increase upon P/CAF stimulation
